Source: patent US7892769B2, “Processing of EphA4 polypeptide by γ-secretase activity” (Eisai R&D Management Co., Ltd., priority 2007, dated 2011)

B1: EICD Δ4: HA-tagged EphA4 intracellular deletion mutant, 701 amino acid-Stop, SEQ ID NO: 174 (protein, listed as Rattus norvegicus)
chain: MDYPYDVPDYATRVDYMENGSLDAFLRKNDGRFTVIQLVGMLRGIGSGMKYLSDMSYVHRDLAARNILVNSNLVCKVSDFGMSRVLEDDPEAAYTTRGGKIPIRWTAPEAIAYRKFTSASDVWSYGIVMWEVMSYGERPYWDMSNQDVIKAIEEGYRLPPPMDCPIALHQLMLDCWQKERSDRPKFGQIVNMLDKLIRNPNSLKRTGPESSRPNTALLDPSSPEFSAVVSVGDWLQAIKMDRYKDNFTAAGYTTLEAVVHMSQDDLARIGITAITHQNKILSSVQAMRTQMQQMHGRMVPV
modifications: HA tag
B2: EICD Δ1: HA-tagged EphA4 intracellular deletion mutant, 587 amino acid-Stop, SEQ ID NO: 168 (protein, listed as Rattus norvegicus)
chain: MDYPYDVPDYATRVDKHLNQGVRTYVDPFTYEDPNQAVREFAKEIDASCIKIEKVIGVGEFGEVCSGRLKVPGKREICVAIKTLKAGYTDKQRRDFLSEASIMGQFDHPNIIHLEGVVTKCKPVMIITEYMENGSLDAFLRKNDGRFTVIQLVGMLRGIGSGMKYLSDMSYVHRDLAARNILVNSNLVCKVSDFGMSRVLEDDPEAAYTTRGGKIPIRWTAPEAIAYRKFTSASDVWSYGIVMWEVMSYGERPYWDMSNQDVIKAIEEGYRLPPPMDCPIALHQLMLDCWQKERSDRPKFGQIVNMLDKLIRNPNSLKRTGPESSRPNTALLDPSSPEFSAVVSVGDWLQAIKMDRYKDNFTAAGYTTLEAVVHMSQDDLARIGITAITHQNKILSSVQAMRTQMQQMHGRMVPV
modifications: HA tag
B3: EICD Δ2: HA-tagged EphA4 intracellular deletion mutant, 622 amino acid-Stop, SEQ ID NO: 170 (protein, listed as Rattus norvegicus)
chain: MDYPYDVPDYATRVDKIEKVIGVGEFGEVCSGRLKVPGKREICVAIKTLKAGYTDKQRRDFLSEASIMGQFDHPNIIHLEGVVTKCKPVMIITEYMENGSLDAFLRKNDGRFTVIQLVGMLRGIGSGMKYLSDMSYVHRDLAARNILVNSNLVCKVSDFGMSRVLEDDPEAAYTTRGGKIPIRWTAPEAIAYRKFTSASDVWSYGIVMWEVMSYGERPYWDMSNQDVIKAIEEGYRLPPPMDCPIALHQLMLDCWQKERSDRPKFGQIVNMLDKLIRNPNSLKRTGPESSRPNTALLDPSSPEFSAVVSVGDWLQAIKMDRYKDNFTAAGYTTLEAVVHMSQDDLARIGITAITHQNKILSSVQAMRTQMQQMHGRMVPV
modifications: HA tag
B4: EICD Δ3: HA-tagged EphA4 intracellular deletion mutant, 661 amino acid-Stop, SEQ ID NO: 172 (protein, listed as Rattus norvegicus)
chain: MDYPYDVPDYATRVDDKQRRDFLSEASIMGQFDHPNIIHLEGVVTKCKPVMIITEYMENGSLDAFLRKNDGRFTVIQLVGMLRGIGSGMKYLSDMSYVHRDLAARNILVNSNLVCKVSDFGMSRVLEDDPEAAYTTRGGKIPIRWTAPEAIAYRKFTSASDVWSYGIVMWEVMSYGERPYWDMSNQDVIKAIEEGYRLPPPMDCPIALHQLMLDCWQKERSDRPKFGQIVNMLDKLIRNPNSLKRTGPESSRPNTALLDPSSPEFSAVVSVGDWLQAIKMDRYKDNFTAAGYTTLEAVVHMSQDDLARIGITAITHQNKILSSVQAMRTQMQQMHGRMVPV
modifications: HA tag

Tested on: NIH3T3 cells
Test: Lamellipodia formation (Rac1 activation indicator) after gene transfer into NIH3T3 cells
Type: cell-based
Settings: EICD deletion mutants transfected separately; compared with HA; FIG. 8
Experimental: In order to examine whether or not EICD produced by γ-secretase is involved in the signaling mechanism of Rho family molecules, and activation of which molecule EICD is involved in, gene transfer into NIH3T3 cells was performed, followed by analysis of the effect of EICD in the rearrangement of actin cytoskeletons in which Rho family molecules are involved. In the rearrangement, the following facts are known: when RhoA is activated, actin fibers called stress fibers are formed at the bottom of cells; when Cdc42 is activated, protrusions called filopodia are formed; when Rac1 is activated, structures called lamellipodia are formed. The effect of EICD was examined with these formations as indicators.
NIH3T3 cells were cultured in 10% CBS (flow)/Antibiotic-Antimycotic (Invitrogen)/DMEM (Invitrogen) under 5% CO2 at 37° C. Genes encoding HA-EICD (SEQ ID NO: 93) or EICD+Rac1N17 (SEQ ID NO: 200) were transfected into the cells with Lipofectamine 2000 (Invitrogen). Eighteen hours later, the cells were replated in wells provided with poly-L-lysin (SIGMA)-coated 13 mm cover glass. Eighteen hours thereafter, the cells were fixed in 2% paraformaldehyde (Wako), treated with 0.25% TritonX-100 and blocked with BlockAce (Snow Brand Milk Products). After the blocking, the cells were treated with rat anti-HA antibody (Roche), followed by reaction with FITC-linked anti-rat IgG antibody (Jackson) and Alexa Fluor phalloidin 546 (Molecular probes).
In the above-mentioned Example 6, the EphA4 fragment used in Example 5 (SEQ ID NO: 197) was transfected instead of the HA-EphA4 intracellular fragment and lamellipodia formation was analyzed in the same way.
Genes encoding HA, HA-EICD (SEQ ID NO: 93) and various EICD mutants (HA-EICD Δ1 to HA-EICD Δ4) prepared in (1) above were transfected to NIH3T3 cells separately in the same manner as described in Examples 6 and 7. Then, ratios of lamellipodia forming cells were examined. In the various EICD mutants described below, capital letters appearing at the 5′ end of the nucleotide sequences represent a nucleotide sequence encoding HA tag. Small letters appearing at the 3′ end represent a nucleotide sequence encoding EphA4 intracellular fragment.

Molecule | ratios of lamellipodia forming cells
B1 | almost the same level as that of HA
B2 | lamellipodia forming cells are increased
B3 | almost the same level as that of HA
B4 | almost the same level as that of HA
